This passage reports IC50 results from patent publication US6989144.

What all share (assay): cell ELISA: soluble GPVI-Fc (0.45-1000 nM) competing with GPVI-U937 cells for 100 nM scFv
In general terms: ELISA stands for enzyme-linked immunosorbent assay.

One assay deals with T1, scFv clone A10.
T1 construct: human scFv from a phage display library; detected through an HA tag, purified through a polyHis tail

Another assay has as its target T2, scFv clone B4.
T2 construct: human scFv from a phage display library

The target of the next assay is T3, scFv clone C3.
T3 construct: human scFv from a phage display library

B1: soluble human GPVI-Fc (extracellular domain of GPVI fused to Fc; hGPVI-human IgG1Fc) (Fc fusion)
chain: QSGPLPKPSLQALPSSLVPLEKPVTLRCQGPPGVDLYRLEKLSSSRYQDQAVLFIPAMKRSLAGRYRCSYQNGSLWSLPSDQLELVATGVFAKPSLSAQPGPAVSSGGDVTLQCQTRYGFDQFALYKEGDPAPYKNPERWYRASFPIITVTAAHSGTYRCYSFSSRDPYLWSAPSDPLELVVTGTSVTPSRLPTEPPSSVAEFSEATAELTVSFTNKVFTTETSRSITTSPKESDSPAGPARQYYTKGN
notes: also called hGPVI-hIgG1Fc; hrGPVI; not shown: human IgG1 Fc
By IC50 is commonly meant the concentration needed to halve the response being measured. Low readings indicate greater potency, high ones weaker potency. As for B1, the concentration for half-maximal inhibition (IC50) was 4.5 nM with scFv clone A10, 5 nM in the assay with scFv clone B4 and 38 nM with scFv clone C3.
